From the nanobody polyreactivity screen of Harvey et al. (2022)

Experiment: yeast display, Sf9 membrane polyspecificity reagent, FACS + sequencing; frameworks hold sequencing errors
In short: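 Using colony PCR, genes from sorted yeast display clones were amplified, then sequenced on MiSeq at 2 × 250 and filtered by CDR length. The clones had been stained with 10% biotinylated, detergent-solubilized Sf9 membrane reagent for 1 hour at 4 °C and sorted by FACS into low and high (top ~1%) gates on anti-HA and streptavidin fluorescence. Polyreactivity labels come from the gate of origin.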

Sequence	polyreactivity (PSR sort gate)
QVQLVESGGGLVQAGGSLRLSCAASGITFGFYAMGWYRQAPGKERELVASITWRGGSTYYADSVKGRFTISRDNAKNTVYLQMNSLKPEDTAVYYCAAEQYVFRPRAQEITTYDYWGQGTQVTVTS	high polyreactivity
QVQLVESGGGLVQAGGSLRLSCAASGITFGKNAMGWYRQAPGKESEFVAAISWGGGRTYYADSVKGRFTISRDNAKNTVYLQMNSLKPEDTAVYYCNVGPRAGWYRSNYDYWGQGTQVTVSS	low polyreactivity
QVQLVESGGGLVQAGGSLRLSCAASGITFGLYVMGWYRQAPRKERELVAANSSGGSTNYADSVKGRFTISRDNAKNPVYLQMNSLKPEDTAVYYCNADRLRPEYDYWGQGTQVTVSS	low polyreactivity
QVQLVESGGGLVQAGGSLRLSCAASGITFGPYAMGWYRQAPGKERELVAAITWGGGSTYYADSVKGRFTISRDNAKNTVYFQMNSLKPEDTAVYYCAASVEWYGWYPYDFWGQGTQVTVSS	low polyreactivity
QVQLVESGGGLVQAGGSLRLSCAASGITFGRNTMGWYRQAPGKERELVAAIDSGGNTYADSVKGRFTISRDNAKNTVYLLMNSLKPDDTAVYYCAVDGGEFSSYVYWGQGTQVTVSS	low polyreactivity
QVQLVESGGGLVQAGGSLRLSCAASGITFGRYAMGWYREAPGKERELVAAISRRGGSTHYADSVKGRFTISRDNAKNTVYLQMNSLKPEDTAVYYCNASPYRYRPSEYDYWGQGTQVTVSS	high polyreactivity
QVQLVESGGGLVQAGGSLRLSCAASGITFGSYAMGWYRHAPGKERELVAAIRWRGGNTYYADSVKGRFTISRDNAKNTVYLQMNSLKPEDTAVYSCAARRYGYRYDQPYYNDYWGQGTQVTVSS	low polyreactivity
QVQLVESGGGLVQAGGSLRLSCAASGITFGSYAMGWYRQAPGKEREFVAAISLSGGNTYYADSVKGRFTISRDNAKNTVYLQMNSLKPEDTAVYYCAADYEYSGYGYWGQGTQVTVSS	high polyreactivity
QVQLVESGGGLVQAGGSLRLSCAASGITFGSYAMGWYRQAPGKERELVAAITSGGGTNYADSVKGRFTISRDNPKNTVYLQMNSLKPEDTAVYYCAARYYYLGTRYGYWGQGTQVTVSS	low polyreactivity
QVQLVESGGGLVQAGGSLRLSCAASGITFGTYAMGWYRQATGKERELVDAITRGGRTYYADSVKGRFTISRDNDKNTVYLQMYSLKPEDTAVYYCNAYVLRRYGWRSGDDYDYWGQGTQVNVSS	high polyreactivity
QVQLVESGGGLVQAGGSLRLSCAASGITFGVNAMGGSRQAPGKERELVAAITQRGDSTYYADSVKGRFTISRDTAKNTLDLQMNSLKPEDTAVYYCNADYAWRFPVTYDYWGQGTQVTVSS	low polyreactivity
QVQLVESGGGLVQAGGSLRLSCAASGITFGVYGMGWYRQAPGKERELVAAISRTGGSTYYADSVKGRFTISRDNAKNTVYLQMNSLKPEDTAVYYCAADRYRRVAKHGYWGQGTQVTVSS	high polyreactivity
QVQLVESGGGLVQAGGSLRLSCAASGITFGYYAMGWYRQAPGKEREFVAGITTSGGTTYYADSVKGRFTISRDNENNTVYLHMNSLKPEDTAVYYCAVYGGVKRGSFYYWGQGTQVTVSS	low polyreactivity
QVQLVESGGGLVQAGGSLRLSCAASGITFGYYAMGWYRQAPGKERELVAAISWSGDSTYYADSVKGRFTISRDNAKNTVSLQMNSLKPEDTPVYYCTRGSSWEYGAEYNYWGQGTQVTVSS	low polyreactivity
QVQLVESGGGLVQAGGSLRLSCAASGITFGYYAMGWYRQAPGKERELVASISWSGDSTYYADSVKGRFTISRDNAKNTVYLQMNSLKPEDTAVYYCNRGSSWEYGAEYNYWGQGTQETVSS	low polyreactivity
QVQLVESGGGLVQAGGSLRLSCAASGITFGYYAMGWYRQAPGKERELVATITDGGGTKYADSVKGRFTISRDNAKNTVYLQINSLKPEDTAVYYCAAGLRHVYATEYDYWGQGTQVTVSS	low polyreactivity
QVQLVESGGGLVQAGGSLRLSCAASGITFGYYAMGWYRQAPGKERELVATLTDGGGTKYADSVKGRFTISRDNAMNTVYLQMDSLKPEDTAVYYCAAGLRHVYATEYDYWGQGTQVTVSS	low polyreactivity
